Data taken from PMC7072198 (2020).

Target: EGFR extracellular domain (ECD), wild type (human, UniProt P00533 25-645)
Test: SPR

| Binder | Kd [nM] |
| --- | --- |
| recombinant Lingzhi-8 (rLZ-8), wild type (natural protein) MSDTALIFRLAWDVKKLSFDYTPNWGRGNPNNFIDTVTFPKVLTDKAYTYRVAVSGRNLGVKPSYAVESDGSQKVNFLEYNSGYGIADTNTIQVFVVDPDTNNDFIIAQWN | 4.75 |
| rLZ-8^(Mut 3) (K16A/S18A/K41A/D45A) (natural protein) SDTALIFRLAWDVKALAFDYTPNWGRGNPNNFIDTVTFPAVLTAKAYTYRVAVSGRNLGVKPSYAVESDGSQKVNFLEYNSGYGIADTNTIQVFVVDPDTNNDFIIAQWN | 9.22 |
